Assays:
F-actin = F-actin (UniProt P68133); conditions: cited from earlier work
[1] = biological target: F-actin (filamentous actin) (human (endogenous in HEK293)) (UniProt P60709); experiment: single-molecule localisation microscopy (direct-LIVE-PAINT, TIRF); live HEK293 cells transiently transfected with LifeAct-14-EGFP plasmid (4 ng or 20 ng DNA), imaged 24 h later at 37°C; 488 nm excitation, 50 ms exposure, 2000 frames; transient binding events read as single-molecule localisations

Substance | Kd (F-actin) | localizations/s (4 ng DNA transfected) (localizations/s) [1] | localizations/s (20 ng DNA transfected) (localizations/s) [1]
LifeAct-14 1-14 (from UniProt Q08641) | 1200 nM |  | 
LifeAct-14-EGFP (from UniProt Q08641 1-14) (peptide) |  | 540 | 1860

From paper PMC9878614
